Laboratory results reported in the Immune Epitope Database (IEDB).
One block for each sequence: values may come before it.

Experiments:
[1] = target: HLA-A*03:01; experiment: IEDB peptide-MHC binding, purified MHC/direct/fluorescence; filed as Kd, often an IC50 or EC50 that approximates it; ≥ and ≤ were set here for values at or beyond the usual limits of such assays
[2] = target: HLA-B*40:01; experiment: as above
[3] = target: HLA-A*26:01; experiment: as above
[4] = target: HLA-B*58:01; experiment: as above
[5] = target: HLA-A*02:01; experiment: as above
[6] = target: HLA-A*01:01; experiment: as above
[7] = target: HLA-B*15:01; experiment: as above
[8] = target: HLA-A*31:01; experiment: as above
[9] = target: HLA-A*24:03; experiment: as above
[10] = target: HLA-B*27:05; experiment: as above
[11] = target: HLA-B*07:02; experiment: as above
[12] = target: HLA-A*30:01; experiment: as above
[13] = target: HLA-A*69:01; experiment: as above
[14] = target: HLA-A*11:01; experiment: as above
[15] = target: HLA-B*08:01; experiment: as above
[16] = target: HLA-B*44:02; experiment: as above
[17] = target: HLA-B*51:01; experiment: IEDB peptide-MHC binding, purified MHC/competitive/fluorescence; filed as Kd, often an IC50 or EC50 that approximates it; ≥ and ≤ were set here for values at or beyond the usual limits of such assays
[18] = target: HLA-A*26:01; experiment: as above
[19] = target: HLA-B*39:01; experiment: as above
[20] = target: HLA-B*57:01; experiment: as above
[21] = target: HLA-B*27:03; experiment: as above
[22] = target: HLA-B*18:01; experiment: as above
[23] = target: HLA-A*69:01; experiment: as above
[24] = target: HLA-A*29:02; experiment: IEDB peptide-MHC binding, purified MHC/direct/fluorescence; filed as Kd, often an IC50 or EC50 that approximates it; ≥ and ≤ were set here for values at or beyond the usual limits of such assays
[25] = target: HLA-A*02:03; experiment: as above
[26] = target: HLA-A*23:01; experiment: as above
[27] = target: HLA-A*02:16; experiment: as above
[28] = target: HLA-A*02:12; experiment: as above
[29] = target: HLA-B*46:01; experiment: IEDB peptide-MHC binding, purified MHC/competitive/fluorescence; filed as Kd, often an IC50 or EC50 that approximates it; ≥ and ≤ were set here for values at or beyond the usual limits of such assays
[30] = target: HLA-A*02:01; experiment: as above
[31] = target: HLA-B*15:01; experiment: as above
[32] = target: HLA-A*02:11; experiment: IEDB peptide-MHC binding, purified MHC/direct/fluorescence; filed as Kd, often an IC50 or EC50 that approximates it; ≥ and ≤ were set here for values at or beyond the usual limits of such assays
[33] = target: HLA-A*02:19; experiment: as above
[34] = target: HLA-A*68:02; experiment: as above
[35] = target: HLA-B*15:17; experiment: IEDB peptide-MHC binding, purified MHC/competitive/fluorescence; filed as Kd, often an IC50 or EC50 that approximates it; ≥ and ≤ were set here for values at or beyond the usual limits of such assays
[36] = source organism: Pseudomonas aeruginosa
[37] = source organism: Pseudomonas aeruginosa UCBPP-PA14
[38] = source organism: Campylobacter jejuni
[39] = source organism: Campylobacter jejuni RM1221
[40] = source organism: Seoul virus 80-39
[41] = source organism: Orthohantavirus hantanense
[42] = source organism: Orthohantavirus andesense
[43] = source organism: Coxiella burnetii
[44] = source organism: Escherichia coli O157:H7
[45] = source organism: Zaire ebolavirus
[46] = source organism: Brucella melitensis
[47] = source organism: Orthohantavirus sinnombreense
[48] = source organism: Limestone Canyon virus

- Kd [1, 36]: 0.213 µM
- Kd [2, 37]: ≥ 20 µM
- Kd [3, 37]: ≥ 20 µM
- Kd [4, 37]: ≥ 20 µM
- Kd [5, 36]: 11.5 µM
- Kd [6, 36]: 2.36 µM
- Kd [7, 37]: ≥ 20 µM
- Kd [8, 36]: 0.265 µM
- Kd [9, 37]: ≥ 20 µM
- Kd [10, 37]: ≥ 20 µM
- Kd [11, 37]: ≥ 20 µM
- Kd [12, 36]: 0.0138 µM
- Kd [13, 37]: ≥ 20 µM
- Kd [14, 36]: 0.0487 µM
- Kd [15, 36]: 10.6 µM
Sequence: YTFCRLNVK

Sequence: ALIVAIWDK
- Kd [1, 38]: 2.7 µM
- Kd [2, 39]: ≥ 20 µM
- Kd [16, 39]: ≥ 20 µM
- Kd [3, 39]: ≥ 20 µM
- Kd [4, 39]: ≥ 20 µM
- Kd [5, 38]: ≥ 20 µM
- Kd [6, 39]: ≥ 20 µM
- Kd [7, 39]: ≥ 20 µM
- Kd [8, 38]: 11.8 µM
- Kd [9, 39]: ≥ 20 µM
- Kd [10, 39]: ≥ 20 µM
- Kd [11, 39]: ≥ 20 µM
- Kd [12, 38]: 8.54 µM
- Kd [13, 39]: ≥ 20 µM
- Kd [14, 38]: 0.553 µM
- Kd [15, 39]: ≥ 20 µM

Sequence: LVRDITESL
- Kd [17, 40]: ≥ 20 µM
- Kd [18, 40]: ≥ 20 µM
- Kd [19, 40]: ≥ 20 µM
- Kd [20, 40]: ≥ 20 µM
- Kd [21, 40]: ≥ 20 µM
- Kd [22, 40]: ≥ 20 µM
- Kd [23, 40]: ≥ 20 µM
- Kd [1, 41]: ≥ 20 µM
- Kd [24, 41]: ≥ 20 µM
- Kd [25, 41]: ≥ 20 µM
- Kd [9, 41]: ≥ 20 µM
- Kd [11, 40]: 0.0392 µM
- Kd [26, 41]: ≥ 20 µM
- Kd [27, 41]: ≥ 20 µM
- Kd [28, 41]: ≥ 20 µM

Sequence: VSANVKGNW
- Kd [18, 42]: ≥ 20 µM
- Kd [29, 42]: ≥ 20 µM
- Kd [30, 42]: ≥ 20 µM
- Kd [19, 42]: ≥ 20 µM
- Kd [31, 42]: ≥ 20 µM
- Kd [21, 42]: ≥ 20 µM
- Kd [22, 42]: ≥ 20 µM
- Kd [23, 42]: ≥ 20 µM
- Kd [1, 42]: ≥ 20 µM
- Kd [32, 42]: ≥ 20 µM
- Kd [4, 42]: 0.0023 µM
- Kd [33, 42]: ≥ 20 µM
- Kd [24, 42]: ≥ 20 µM
- Kd [25, 42]: ≥ 20 µM
- Kd [9, 42]: ≥ 20 µM
- Kd [27, 42]: ≥ 20 µM
- Kd [34, 42]: ≥ 20 µM
- Kd [28, 42]: ≥ 20 µM

Sequence: KGPDKLQVY
- Kd [1, 43]: ≥ 20 µM
- Kd [2, 43]: ≥ 20 µM
- Kd [16, 43]: ≥ 20 µM
- Kd [3, 43]: ≥ 20 µM
- Kd [4, 43]: ≥ 20 µM
- Kd [5, 43]: ≥ 20 µM
- Kd [6, 43]: ≥ 20 µM
- Kd [7, 43]: 2.42 µM
- Kd [8, 43]: ≥ 20 µM
- Kd [10, 43]: ≥ 20 µM
- Kd [11, 43]: ≥ 20 µM
- Kd [12, 43]: 12.3 µM
- Kd [13, 43]: ≥ 20 µM
- Kd [14, 43]: ≥ 20 µM
- Kd [15, 43]: ≥ 20 µM

- Kd [1, 44]: 0.392 µM
- Kd [2, 44]: ≥ 20 µM
- Kd [16, 44]: ≥ 20 µM
- Kd [3, 44]: ≥ 20 µM
- Kd [4, 44]: ≥ 20 µM
- Kd [5, 44]: ≥ 20 µM
- Kd [6, 44]: ≥ 20 µM
- Kd [7, 44]: ≥ 20 µM
- Kd [8, 44]: ≥ 20 µM
- Kd [9, 44]: ≥ 20 µM
- Kd [10, 44]: ≥ 20 µM
- Kd [11, 44]: ≥ 20 µM
- Kd [12, 44]: 0.0722 µM
- Kd [13, 44]: ≥ 20 µM
- Kd [14, 44]: 0.101 µM
- Kd [15, 44]: ≥ 20 µM
Sequence: GITGGHIPK

Sequence: AENCYNLEI
- Kd [17, 45]: ≥ 20 µM
- Kd [18, 45]: ≥ 20 µM
- Kd [29, 45]: ≥ 20 µM
- Kd [30, 45]: ≥ 20 µM
- Kd [19, 45]: ≥ 20 µM
- Kd [31, 45]: ≥ 20 µM
- Kd [35, 45]: ≥ 20 µM
- Kd [20, 45]: ≥ 20 µM
- Kd [21, 45]: ≥ 20 µM
- Kd [22, 45]: ≥ 20 µM
- Kd [23, 45]: ≥ 20 µM
- Kd [1, 45]: ≥ 20 µM
- Kd [2, 45]: 0.0822 µM
- Kd [32, 45]: ≥ 20 µM
- Kd [33, 45]: ≥ 20 µM
- Kd [24, 45]: ≥ 20 µM
- Kd [25, 45]: ≥ 20 µM
- Kd [9, 45]: ≥ 20 µM
- Kd [27, 45]: ≥ 20 µM
- Kd [34, 45]: ≥ 20 µM
- Kd [28, 45]: ≥ 20 µM

Sequence: RLWNGRRCR
- Kd [1, 46]: 0.634 µM
- Kd [2, 46]: ≥ 20 µM
- Kd [16, 46]: ≥ 20 µM
- Kd [3, 46]: ≥ 20 µM
- Kd [4, 46]: ≥ 20 µM
- Kd [5, 46]: ≥ 20 µM
- Kd [6, 46]: ≥ 20 µM
- Kd [7, 46]: ≥ 20 µM
- Kd [8, 46]: 0.0615 µM
- Kd [9, 46]: ≥ 20 µM
- Kd [10, 46]: 2.04 µM
- Kd [11, 46]: ≥ 20 µM
- Kd [12, 46]: 1.75 µM
- Kd [13, 46]: ≥ 20 µM
- Kd [14, 46]: 11.4 µM
- Kd [15, 46]: ≥ 20 µM

Sequence: LVTARQKLK
- Kd [17, 47]: ≥ 20 µM
- Kd [18, 47]: ≥ 20 µM
- Kd [29, 47]: ≥ 20 µM
- Kd [30, 47]: ≥ 20 µM
- Kd [19, 47]: ≥ 20 µM
- Kd [31, 47]: ≥ 20 µM
- Kd [35, 47]: ≥ 20 µM
- Kd [20, 47]: ≥ 20 µM
- Kd [21, 47]: ≥ 20 µM
- Kd [22, 47]: ≥ 20 µM
- Kd [23, 47]: ≥ 20 µM
- Kd [1, 42]: 9 µM
- Kd [32, 48]: ≥ 20 µM
- Kd [33, 48]: ≥ 20 µM
- Kd [24, 48]: ≥ 20 µM
- Kd [25, 48]: ≥ 20 µM
- Kd [9, 48]: ≥ 20 µM
- Kd [26, 48]: ≥ 20 µM
- Kd [27, 48]: ≥ 20 µM
- Kd [34, 48]: ≥ 20 µM
- Kd [28, 48]: ≥ 20 µM
